In patent US20140058068A1 (UNIVERSITY OF MIAMI, published 2014):
Square brackets hold non-standard residues; d marks the D form. Ends that are not written are not given here. * marks the point of attachment. Desaminotyrosyl = O=C(CCc1ccc(O)cc1)*; NMeY = CN[C@@H](Cc1ccc(O)cc1)C(=O)O; Nle = CCCC[C@H](N)C(=O)O; Orn = NCCC[C@H](N)C(=O)O; Abu = CC[C@H](N)C(=O)O; Aoc = NCCCCCCCC(=O)O; Ava = NCCCCC(=O)O

T1: GHRH receptor of human pituitary membrane homogenates (human, UniProt Q02643 23-423)
T1 construct: whole, on cells; Native receptor in pituitary membrane homogenates, not intact cells; also called hGH-RH receptor
T1 sequence (looked up): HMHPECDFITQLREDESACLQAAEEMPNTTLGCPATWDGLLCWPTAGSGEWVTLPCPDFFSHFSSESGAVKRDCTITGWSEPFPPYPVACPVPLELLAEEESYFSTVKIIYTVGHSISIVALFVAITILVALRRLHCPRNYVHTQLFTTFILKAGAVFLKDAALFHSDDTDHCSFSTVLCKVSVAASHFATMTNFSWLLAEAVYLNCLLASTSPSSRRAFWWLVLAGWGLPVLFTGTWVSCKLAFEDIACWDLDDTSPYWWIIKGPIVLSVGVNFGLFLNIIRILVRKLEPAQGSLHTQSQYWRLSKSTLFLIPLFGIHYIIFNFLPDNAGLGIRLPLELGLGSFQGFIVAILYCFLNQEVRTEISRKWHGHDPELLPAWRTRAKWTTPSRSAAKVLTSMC


biological target: T1, GHRH receptor of human pituitary …; assay: radioligand competition, 125I-JV-1-42 (~0.2 nM) as competitor, human pituitary membrane homogenates
Description: Normal human pituitaries were purchased from the National Hormone and Peptide Program (A. F. Parlow, Los Angeles, County Harbor-UCLA Medical Center, Torrance, Calif.).

Row | IC50 | Relative affinity (Binding potency) vs JI-38 | Binder
1 | 1.87 nM | 2.32 fold, JI-38 = 1 | [NMeY][dA]DAIFTNSYR[Orn]VL[Abu]QLSAR[Orn]LLQDI[Nle]DR[Aoc]-NH2 (N-terminus assumed; SMILES CCCC[C@H](NC(=O)[C@@H](NC(=O)[C@H](CC(=O)O)NC(=O)[C@H](CCC(N)=O)NC(=O)[C@H](CC(C)C)NC(=O)[C@H](CC(C)C)NC(=O)[C@H](CCCN)NC(=O)[C@H](CCCNC(=N)N)NC(=O)[C@H](C)NC(=O)[C@H](CO)NC(=O)[C@H](CC(C)C)NC(=O)[C@H](CCC(N)=O)NC(=O)[C@H](CC)NC(=O)[C@H](CC(C)C)NC(=O)[C@@H](NC(=O)[C@H](CCCN)NC(=O)[C@H](CCCNC(=N)N)NC(=O)[C@H](Cc1ccc(O)cc1)NC(=O)[C@H](CO)NC(=O)[C@H](CC(N)=O)NC(=O)[C@@H](NC(=O)[C@H](Cc1ccccc1)NC(=O)[C@@H](NC(=O)[C@H](C)NC(=O)[C@H](CC(=O)O)NC(=O)[C@@H](C)NC(=O)[C@H](Cc1ccc(O)cc1)NC)[C@@H](C)CC)[C@@H](C)O)C(C)C)[C@@H](C)CC)C(=O)N[C@@H](CC(=O)O)C(=O)N[C@@H](CCCNC(=N)N)C(=O)NCCCCCCCC(N)=O) [[N-Me-Tyr^1, D-Ala^2, Orn^12, Abu^15, Orn^21, Nle^27, Asp^28, Amc^30]hGH-RH(1-30)NH2]
2 | 3.61 nM | 1.2 fold, JI-38 = 1 | [Desaminotyrosyl][dA]DAIFTNSYR[Orn]VL[Abu]QLSAR[Orn]LLQDI[Nle]DR[Aoc]-NH2 (SMILES CCCC[C@H](NC(=O)[C@@H](NC(=O)[C@H](CC(=O)O)NC(=O)[C@H](CCC(N)=O)NC(=O)[C@H](CC(C)C)NC(=O)[C@H](CC(C)C)NC(=O)[C@H](CCCN)NC(=O)[C@H](CCCNC(=N)N)NC(=O)[C@H](C)NC(=O)[C@H](CO)NC(=O)[C@H](CC(C)C)NC(=O)[C@H](CCC(N)=O)NC(=O)[C@H](CC)NC(=O)[C@H](CC(C)C)NC(=O)[C@@H](NC(=O)[C@H](CCCN)NC(=O)[C@H](CCCNC(=N)N)NC(=O)[C@H](Cc1ccc(O)cc1)NC(=O)[C@H](CO)NC(=O)[C@H](CC(N)=O)NC(=O)[C@@H](NC(=O)[C@H](Cc1ccccc1)NC(=O)[C@@H](NC(=O)[C@H](C)NC(=O)[C@H](CC(=O)O)NC(=O)[C@@H](C)NC(=O)CCc1ccc(O)cc1)[C@@H](C)CC)[C@@H](C)O)C(C)C)[C@@H](C)CC)C(=O)N[C@@H](CC(=O)O)C(=O)N[C@@H](CCCNC(=N)N)C(=O)NCCCCCCCC(N)=O, also called Peptide 21300) [[Dat^1, D-Ala^2, Orn^12, Abu^15, Orn^21, Nle^27, Asp^28, Amc^30]hGH-RH(1-30)NH2]
3 | – | 8.37 fold, JI-38 = 1 | [NMeY][dA]DAIFTQSYR[Orn]VL[Abu]QLSAR[Orn]LLQDI[Nle]DR-NHEt (also called Peptide 28420) [[N-Me-Tyr^1, D-Ala^2, Gln^8, Orn^12, Abu^15, Orn^21, Nle^27, Asp^28]hGH-RH(1-29)NH-CH2-CH3]
4 | 3.35 nM | 1.3 fold, JI-38 = 1 | [Desaminotyrosyl][dA]DAIFTNSYR[Orn]VL[Abu]QLSAR[Orn]LLQDI[Nle]DR-NHMe (SMILES CCCC[C@H](NC(=O)[C@@H](NC(=O)[C@H](CC(=O)O)NC(=O)[C@H](CCC(N)=O)NC(=O)[C@H](CC(C)C)NC(=O)[C@H](CC(C)C)NC(=O)[C@H](CCCN)NC(=O)[C@H](CCCNC(=N)N)NC(=O)[C@H](C)NC(=O)[C@H](CO)NC(=O)[C@H](CC(C)C)NC(=O)[C@H](CCC(N)=O)NC(=O)[C@H](CC)NC(=O)[C@H](CC(C)C)NC(=O)[C@@H](NC(=O)[C@H](CCCN)NC(=O)[C@H](CCCNC(=N)N)NC(=O)[C@H](Cc1ccc(O)cc1)NC(=O)[C@H](CO)NC(=O)[C@H](CC(N)=O)NC(=O)[C@@H](NC(=O)[C@H](Cc1ccccc1)NC(=O)[C@@H](NC(=O)[C@H](C)NC(=O)[C@H](CC(=O)O)NC(=O)[C@@H](C)NC(=O)CCc1ccc(O)cc1)[C@@H](C)CC)[C@@H](C)O)C(C)C)[C@@H](C)CC)C(=O)N[C@@H](CC(=O)O)C(=O)N[C@@H](CCCNC(=N)N)C(=O)NC) [[Dat^1, D-Ala^2, Orn^12, Abu^15, Orn^21, Nle^27, Asp^28]hGH-RH(1-29)NH-CH3]
5 | 0.3 nM | 14.5 fold, JI-38 = 1 | [NMeY]ADAIFTQSYR[Orn]VL[Abu]QLSAR[Orn]LLQDI[Nle]DR-NHMe (also called Peptide 27406) [[N-Me-Tyr^1, Gln^8, Orn^12, Abu^15, Orn^21, Nle^27, Asp^28]hGH-RH(1-29)NH-CH3]
6 | 1.08 nM | 4.03 fold, JI-38 = 1 | [NMeY]ADAIFTQSYR[Orn]VL[Abu]QLSAR[Orn]LLQDI[Nle]SR-NHMe [[N-Me-Tyr^1, Gln^8, Orn^12, Abu^15, Orn^21, Nle^27]hGH-RH(1-29)NH-CH3]
7 | 2.45 nM | 1.78 fold, JI-38 = 1 | [Desaminotyrosyl]ADAIFTQSYH[Orn]VL[Abu]QLSAH[Orn]LLQDI[Nle]DR-NHMe (SMILES CCCC[C@H](NC(=O)[C@@H](NC(=O)[C@H](CC(=O)O)NC(=O)[C@H](CCC(N)=O)NC(=O)[C@H](CC(C)C)NC(=O)[C@H](CC(C)C)NC(=O)[C@H](CCCN)NC(=O)[C@H](Cc1c[nH]cn1)NC(=O)[C@H](C)NC(=O)[C@H](CO)NC(=O)[C@H](CC(C)C)NC(=O)[C@H](CCC(N)=O)NC(=O)[C@H](CC)NC(=O)[C@H](CC(C)C)NC(=O)[C@@H](NC(=O)[C@H](CCCN)NC(=O)[C@H](Cc1c[nH]cn1)NC(=O)[C@H](Cc1ccc(O)cc1)NC(=O)[C@H](CO)NC(=O)[C@H](CCC(N)=O)NC(=O)[C@@H](NC(=O)[C@H](Cc1ccccc1)NC(=O)[C@@H](NC(=O)[C@H](C)NC(=O)[C@H](CC(=O)O)NC(=O)[C@H](C)NC(=O)CCc1ccc(O)cc1)[C@@H](C)CC)[C@@H](C)O)C(C)C)[C@@H](C)CC)C(=O)N[C@@H](CC(=O)O)C(=O)N[C@@H](CCCNC(=N)N)C(=O)NC, also called Peptide 27413) [[Dat^1, Gln^8, His^11, Orn^12, Abu^15, His^20, Orn^21, Nle^27, Asp^28]hGH-RH(1-29)NH-CH3]
8 | 3 nM | 1.45 fold, JI-38 = 1 | [Desaminotyrosyl]ADAIFTQSYR[Orn]VL[Abu]QLSAR[Orn]LLQDI[Nle]DR-NHMe (SMILES CCCC[C@H](NC(=O)[C@@H](NC(=O)[C@H](CC(=O)O)NC(=O)[C@H](CCC(N)=O)NC(=O)[C@H](CC(C)C)NC(=O)[C@H](CC(C)C)NC(=O)[C@H](CCCN)NC(=O)[C@H](CCCNC(=N)N)NC(=O)[C@H](C)NC(=O)[C@H](CO)NC(=O)[C@H](CC(C)C)NC(=O)[C@H](CCC(N)=O)NC(=O)[C@H](CC)NC(=O)[C@H](CC(C)C)NC(=O)[C@@H](NC(=O)[C@H](CCCN)NC(=O)[C@H](CCCNC(=N)N)NC(=O)[C@H](Cc1ccc(O)cc1)NC(=O)[C@H](CO)NC(=O)[C@H](CCC(N)=O)NC(=O)[C@@H](NC(=O)[C@H](Cc1ccccc1)NC(=O)[C@@H](NC(=O)[C@H](C)NC(=O)[C@H](CC(=O)O)NC(=O)[C@H](C)NC(=O)CCc1ccc(O)cc1)[C@@H](C)CC)[C@@H](C)O)C(C)C)[C@@H](C)CC)C(=O)N[C@@H](CC(=O)O)C(=O)N[C@@H](CCCNC(=N)N)C(=O)NC, also called Peptide 27407) [[Dat^1, Gln^8, Orn^12, Abu^15, Orn^21, Nle^27, Asp^28]hGH-RH(1-29)NH-CH3]
9 | 2.99 nM | 1.45 fold, JI-38 = 1 | [NMeY]ADAIFTNSYR[Orn]VL[Abu]QLSAR[Orn]LLQDI[Nle]DR[Aoc]-NH2 (N-terminus assumed; SMILES CCCC[C@H](NC(=O)[C@@H](NC(=O)[C@H](CC(=O)O)NC(=O)[C@H](CCC(N)=O)NC(=O)[C@H](CC(C)C)NC(=O)[C@H](CC(C)C)NC(=O)[C@H](CCCN)NC(=O)[C@H](CCCNC(=N)N)NC(=O)[C@H](C)NC(=O)[C@H](CO)NC(=O)[C@H](CC(C)C)NC(=O)[C@H](CCC(N)=O)NC(=O)[C@H](CC)NC(=O)[C@H](CC(C)C)NC(=O)[C@@H](NC(=O)[C@H](CCCN)NC(=O)[C@H](CCCNC(=N)N)NC(=O)[C@H](Cc1ccc(O)cc1)NC(=O)[C@H](CO)NC(=O)[C@H](CC(N)=O)NC(=O)[C@@H](NC(=O)[C@H](Cc1ccccc1)NC(=O)[C@@H](NC(=O)[C@H](C)NC(=O)[C@H](CC(=O)O)NC(=O)[C@H](C)NC(=O)[C@H](Cc1ccc(O)cc1)NC)[C@@H](C)CC)[C@@H](C)O)C(C)C)[C@@H](C)CC)C(=O)N[C@@H](CC(=O)O)C(=O)N[C@@H](CCCNC(=N)N)C(=O)NCCCCCCCC(N)=O, also called Peptide 21301) [[N-Me-Tyr^1, Orn^12, Abu^15, Orn^21, Nle^27, Asp^28, Amc^30]hGH-RH(1-30)NH2]
10 | 1.99 nM | 2.18 fold, JI-38 = 1 | [Desaminotyrosyl]ADAIFTQSYR[Orn]VL[Abu]QLSAR[Orn]LLQDI[Nle]DR[Ava]-NH2 (SMILES CCCC[C@H](NC(=O)[C@@H](NC(=O)[C@H](CC(=O)O)NC(=O)[C@H](CCC(N)=O)NC(=O)[C@H](CC(C)C)NC(=O)[C@H](CC(C)C)NC(=O)[C@H](CCCN)NC(=O)[C@H](CCCNC(=N)N)NC(=O)[C@H](C)NC(=O)[C@H](CO)NC(=O)[C@H](CC(C)C)NC(=O)[C@H](CCC(N)=O)NC(=O)[C@H](CC)NC(=O)[C@H](CC(C)C)NC(=O)[C@@H](NC(=O)[C@H](CCCN)NC(=O)[C@H](CCCNC(=N)N)NC(=O)[C@H](Cc1ccc(O)cc1)NC(=O)[C@H](CO)NC(=O)[C@H](CCC(N)=O)NC(=O)[C@@H](NC(=O)[C@H](Cc1ccccc1)NC(=O)[C@@H](NC(=O)[C@H](C)NC(=O)[C@H](CC(=O)O)NC(=O)[C@H](C)NC(=O)CCc1ccc(O)cc1)[C@@H](C)CC)[C@@H](C)O)C(C)C)[C@@H](C)CC)C(=O)N[C@@H](CC(=O)O)C(=O)N[C@@H](CCCNC(=N)N)C(=O)NCCCCC(N)=O, also called Peptide 22327) [[Dat^1, Gln^8, Orn^12, Abu^15, Orn^21, Nle^27, Asp^28, Apa^30]hGH-RH(1-30)NH2]
11 | 3.8 nM | 1.14 fold, JI-38 = 1 | [NMeY]ADAIFTQSYR[Orn]VL[Abu]QLSAR[Orn]LLQDI[Nle]DR[Ava]-NH2 (also called Peptide 22325) [[N-Me-Tyr^1, Gln^8, Orn^12, Abu^15, Orn^21, Nle^27, Asp^28, Apa^30]hGH-RH(1-30)NH2]
12 | 0.83 nM | 5.24 fold, JI-38 = 1 | [NMeY][dA]DAIFTTSYR[Orn]VL[Abu]QLSAR[Orn]LLQDI[Nle]DR-NHMe [[N-Me-Tyr^1, D-Ala^2, Thr^8, Orn^12, Abu^15, Orn^21, Nle^27, Asp^28]hGH-RH(1-29)NH-CH3]
